# Measured values from paper PMC11290222.
# Read-outs that look alike come from different tables or passages of the source.
# B1: TATA-binding protein fused to a Venus half for BiFC (TBP) (natural protein)
# chain: MDQMLSPNFSIPSIGTPLHQMEADQQIVANPVYHPPAVSQPDSLMPAPGSSSVQHQQQQQQSDASGGSGLFGHEPSLPLAHKQMQSYQPSASYQQQQQQQQLQSQAPGGGGSTPQSMMQPQTPQSMMAHMMPMSERSVGGSGAGGGGDALSNIHQTMGPSTPMTPATPGSADPGIVPQLQNIVSTVNLCCKLDLKKIALHARNAEYNPKRFAAVIMRIREPRTTALIFSSGKMVCTGAKSEDDSRLAARKYARIIQKLGFPAKFLDFKIQNMVGSCDVKFPIRLEGLVLTHCNFSSYEPELFPGLIYRMVRPRIVLLIFVSGKVVLTGAKVRQEIYDAFDKIFPILKKFKKQS
# B2: Extradenticle fused to ECFP (natural protein)
# chain: MEDPNRMLAHTGGMMAPQGYGLSGQDDGQNAGSENEVRKQKDIGEILQQIMSISEQSLDEAQARKHTLNCHRMKPALFSVLCEIKEKTVLSIRNTQEEEPPDPQLMRLDNMLIAEGVAGPEKGGGGAAAASAAAASQGGSLSIDGADNAIEHSDYRAKLAQIRQIYHQELEKYEQACNEFTTHVMNLLREQSRTRPITPKEIERMVQIIHKKFSSIQMQLKQSTCEAVMILRSRFLDARRKRRNFSKQASEILNEYFYSHLSNPYPSEEAKEELARKCGITVSQVSNWFGNKRIRYKKNIGKAQEEANLYAAKKAAGASPYSMAGPPSGTTTPMMSPAPPQDSMGYPMGSGGYDQQQPYDNSMGGYDPNLHQDLSP
# What was measured:
# [1] = target: Ubx with E19G in the homeodomain, fused to VN (Ubx^E19G) (Drosophila); assay: split reporter (BiFC, NanoBiT); BiFC in HEK293 cells co-transfected with VN- and VC-plasmids and pCAG-mCherry; read 48 h after transfection; percent = Venus fluorescent cells in one hundred red fluorescent cells, three independent triplicates
# [2] = target: Ubx homeodomain fused to VN (UbxHD) (Drosophila); assay: as above
# Sequence of Ubx homeodomain fused to VN (UbxHD) (Drosophila) (P83949 whole entry, the tested form may be a part): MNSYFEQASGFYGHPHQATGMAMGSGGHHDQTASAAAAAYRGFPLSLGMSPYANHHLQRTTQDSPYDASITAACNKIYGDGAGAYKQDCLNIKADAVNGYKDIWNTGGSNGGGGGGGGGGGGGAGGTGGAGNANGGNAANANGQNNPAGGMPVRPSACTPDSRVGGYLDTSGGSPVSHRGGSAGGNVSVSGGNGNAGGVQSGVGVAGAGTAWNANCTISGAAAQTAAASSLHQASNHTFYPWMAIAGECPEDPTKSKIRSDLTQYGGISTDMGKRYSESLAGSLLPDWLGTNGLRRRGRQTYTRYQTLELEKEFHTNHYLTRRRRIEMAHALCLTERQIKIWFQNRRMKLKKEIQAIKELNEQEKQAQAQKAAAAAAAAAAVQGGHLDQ
# [3] = target: Ultrabithorax full-length fused to the N-terminal half of Venus (VN-Ubx) (Drosophila) (UniProt P83949); assay: as above
# [4] = target: Ubx homeodomain fused to VN (UbxHD) (Drosophila); assay: as above; remark: listed apart in the source
# [5] = target: Antp^AAAA-Ubx BiFC complex (YPWM mutant Antp with VNUbx) (Drosophila) (UniProt P02833); assay: split reporter (BiFC, NanoBiT) + FRET or BRET; BiFC-FRET in HEK293 cells: Venus reconstituted by the Antp-Ubx BiFC as acceptor, third protein fused to ECFP as donor; confocal spectral imaging 48 h after transfection; E-value by FRETTY in ImageJ
# [6] = target: AntpΔHD-Ubx BiFC pair (VC-AntpΔHD with VNUbx) (Drosophila) (UniProt P02833); assay: as above
molecule,measurement,setting,value
Antennapedia full-length fused to the C-terminal half of Venus (VC-Antp) (from UniProt P02833 1-378) (natural protein),percent of transfected cells positive in BiFC,[1],86%
Antp homeodomain fused to VC (AntpHD) (domain or fragment),percent of transfected cells positive in BiFC,[2],96%
"Antp homeodomain with E19G, fused to VC (AntpHD^E19G) (domain or fragment)",percent of transfected cells positive in BiFC,[1],67%
same,percent of transfected cells positive in BiFC,[3],60%
"Antp lacking homeodomain helix 1, fused to VC (AntpΔH1) (from UniProt P02833 1-378) (natural protein)",percent of transfected cells positive in BiFC,[3],24%
"Antp lacking homeodomain helixes 1 and 2, fused to VC (AntpΔH1-2) (from UniProt P02833 1-378) (natural protein)",percent of transfected cells positive in BiFC,[3],12%
"Antp with the homeodomain deleted, fused to VC (AntpΔHD) (from UniProt P02833 1-378) (natural protein)",percent of transfected cells positive in BiFC,[3],6%
"TBP without the PolyQ stretch, fused to a Venus half for BiFC (TBPΔQ) (from UniProt P20227 1-353) (natural protein)",percent of transfected cells positive in BiFC,[2],15%
same,percent of transfected cells positive in BiFC,[3],34%
B1,percent of transfected cells positive in BiFC,[4],41%
B2,FRET E value,[5],0.16
same,FRET E value,[6],0.12
